Reference: patent publication US6730503B1 (Roche Vitamins Inc., priority 1996, dated 2004)

Assays:
[1] = Substrate specificity of purified enzymes, PMS-DCIP spectrophotometric assay; assay type: biochemical; details: A′ corrected 1.5-fold (purity about 65%)
Protocol: The enzymatic activity of the AADHs herein can be determined by methods known in the art, such as by photometric analysis using a spectrophotometer. In accordance with the present invention, one unit of enzyme activity was defined as the amount of enzyme which catalyzed the reduction of 1 μmole of DCIP per minute. The extinction coefficient of DCIP at pH 8.0 was taken as 15 mM^−1. In a preferred standard assay for determining the enzyme activity of the AADHs herein, a first cuvette includes a standard reaction mixture (1.0 ml) containing 0.1 mM DCIP, 1 mM PMS, 2 to 125 mM substrate, 50 mM Tris-malate-NaOH buffer (pH 8.0), and 10 μl of the enzyme solution. A second cuvette, i.e., a reference cuvette, contains all the above components except the substrate. The reference cuvette is used to standardize the background absorbance resulting from a substrate-independent (endogenous) reaction. Preferably, a double beam spectrophotometer is used to determine the activity of the enzyme in the presence of a substrate with respect to a standard reaction mixture in the absence of the substrate.
Enzyme activities of each clone (cell free extract, soluble fraction and membrane fraction) were measured by photometric analysis. The cells of each clone were inoculated in 5 ml of MB medium in a test tube and cultivated at 30° C. for 24 hours. The resulting broth was transferred into 200 ml of fresh MB medium in 500 ml flask and the flask was shaken on the rotary flask shaker at 30° C. for 24 hours. The cells were collected by centrifugation at 6,000×g for 10 minutes and washed with 40 ml of cold buffer consisting of 50 mM Tris-HCl, pH 7.5, 5 mM MgCl2 and 0.5 mM phenylmethylsulfonyl fluoride and suspended with the same buffer to prepare cell suspension of 1 g wet cells per 5 ml. The cell suspension was subjected twice to a French press cell disruptor (1,500 kg/cm^2) and the resulting homogenate was centrifuged at 6,000×g for 10 minutes to remove cell debris. Thus obtained cell free extract (CFE) was centrifuged at 100,000×g for 60 minutes. The resulting supernatant and pellet were collected as the cytosol fraction and the membrane fraction, respectively and subjected to PMS-DCIP assay as follows. The enzyme reaction mixture (1.0 ml) contained 100 μM DCIP, 1 mM PMS, 50 mM Tris malate-NaOH buffer, pH 8.0, a substrate and the enzyme (10 μl). Substrate-dependent decreasing rate of absorbance of DCIP at 600 nm was measured at 25° C. by using a Kontron spectrophotometer UVIKON 810. […] In the A-group, there were three types, A, A′ and A″ each of which was distinguished from each other by their physical map of the DNA carried on each plasmid. B- or C-group each consisted of only one type of protein derived from one region of the chromosomal DNA.

[2] = Optimal pH, PMS-DCIP assay in buffers of various pH; assay type: biochemical
Protocol: The Enzymes A″ and B have a relatively wide pH range toward a lower pH, compared with the Enzymes A and A′.
The enzyme activity was assayed by the PMS-DCIP spectrophotometric assay using various pH buffers. The buffers were 50 mM Tris-malate-NaOH, pH 6.0, 6.5, 7.0, 7.5, 8.0 and 8.5; 50 mM glycine-NaOH, pH 9.0 and 9.5. The extinction coefficients of DCIP at pH 6.0, 6.5, 7.0, 7.5, 8.0, 8.5, 9.0 and 9.5 were taken as 10.8, 13.2, 14.5, 14.9, 15.0, 15.1, 15.1 and 15.1, respectively. […] The Enzymes A″ and B had relatively wide pH range toward lower pH, compared with the Enzymes A and A′.

[3] = pH stability, 3 hours at 25° C., residual activity by PMS-DCIP assay; assay type: physicochemical; details: relative to no incubation at pH 8.0
Protocol: Enzymes A, A′, A″ and B were incubated in buffers of various pH-values for 3 hours at 25° C. and the residual activities were assayed and expressed as relative values against that obtained by no incubation at pH 8.
Table 3 indicates the results of pH-stabilities of the enzymes. The enzyme (about 0.01 mg/ml) was incubated with 50 mM buffer containing 5% sucrose, 0.2 M NaCl, and 5 mM CaCl2 at 25° C. for 3 hours and assayed by PMS-DCIP spectrophotometric method. The buffers were Na-acetate, pH4 and 5, Tris-malate-NaOH, pH 6, 7 and 8, glycine-NaOH, pH 9 and 10. The values in the table are expressed as relative activity against that obtained by no incubation at pH 8.0.

[4] = Thermal stability, 5 minutes, residual activity by PMS-DCIP assay; assay type: physicochemical
Protocol: Table 4 indicates the results of thermal-stabilities of the enzymes. The enzyme (about 0.05 mg/ml) in 25 mM HEPES buffer, pH 7.5, containing 5% sucrose, 0.2 M NaCl, and 5 mM CaCl2 was incubated at temperature indicated in the table (4-60° C.) for 5 minutes, cooled in ice bath and assayed by PMS-DCIP spectrophotometric method. Remaining activity was expressed as relative activity against that obtained by 4° C. incubation.

[5] = Products of enzyme reactions with purified enzymes, identified by TLC and/or HPLC; assay type: biochemical
Protocol: Products formed from a substrate in the reaction with Enzyme A, Enzyme A′, Enzyme A″ or Enzyme B were analyzed by thin layer chromatography (TLC) and/or high performance liquid chromatography (HPLC) with authentic compounds. […] Similarly to the reactivity for L-sorbosone, D-glucosone can be converted to 2KD by all of above mentioned AADHs. A group enzymes can produce 2KD from D-fructose whose possible direct product is D-glucosone. […]
Enzyme reactions with purified Enzyme A or Enzyme B and various substrates were performed as described in Example 11.

Substrate specificity ([1]; 2 mM L-Sorbosone): 26.5 units/mg of purified protein
Substrate specificity ([1]; 50 mM D-Glucose): 17.8 units/mg of purified protein
Substrate specificity ([1]; 50 mM D-Mannitol): 6.2 units/mg of purified protein
Substrate specificity ([1]; 50 mM Isopropanol): 154.9 units/mg of purified protein
Substrate specificity ([1]; 50 mM n-Propanol): 262.3 units/mg of purified protein
Substrate specificity ([1]; 125 mM D-Fructose): 17.3 units/mg of purified protein
Substrate specificity ([1]; 125 mM D-Sorbitol): 30.1 units/mg of purified protein
Substrate specificity ([1]; 125 mM L-Sorbose): 30.3 units/mg of purified protein
Product ([5]; substrate D-Fructose): 2-keto-D-gluconic acid
Product ([5]; substrate D-Mannitol): D-mannose
Product ([5]; substrate D-Sorbitol): D-glucose with L-gulose
Product ([5]; substrate L-Sorbose): L-sorbosone with 2KGA
Product ([5]; substrate L-Sorbosone): 2KGA
B1: Enzyme A″: recombinant AADH of G. oxydans DSM No. 4025, amino acid sequence SEQ ID NO 7, plasmid p26C3 (protein)
chain: MKLTTLLQSSAALLVLGTIPALAQTAITDEMLANPPAGEWINYGQNQENYRHSPLTQITADNVGQLQLVWARGMEAGKIQVTPLVHDGVMYLANPGDVIQAIDAATGDLIWEHRRQLPNIATLNSFGEPTRGMALYGTNVYFVSWDNHLVALDTSTGQVVFDVDRGQGTDMVSNSSGPIVANGVIVAGSTCQYSPFGCFVSGHDSATGEELWRNTFIPRAGEEGDETWGNDYEARWMTGVWGQITYDPVGGLVHYGTSAVGPAAEIQRGTVGGSMYGTNTRFAVRPETGEIVWRHQTLPRDNWDQECTFEMMVVNVDVQPSAEMEGLHAINPDAATGERRVVTGVPCKNGTMWQFDAETGEFLWARDTSYQNLIESVDPDGLVHVNEDLVVTELEVAYEICPTFLGGRDWPSAALNPDTGIYFIPLNNACSGMTAVDQEFSSLDVYNVSLDYKLSPGSENMGRIDAIDISTGRTLWSAERYASNYAPVLSTGGGVLFNGGTDRYFRALSQETGETLWQTRLATVASGQAISYEIDGVQYVAIGRGGTSYGSNHNRALTERIDSTAIGSAIYVFALPQQ
modifications: Gluconobacter oxydans; SIGNAL (1)..(23)
Relative activity (optimal pH) ([2]; assay pH 6.0, pH 8.0 = 100): 35.0%
Relative activity (optimal pH) ([2]; assay pH 6.5, pH 8.0 = 100): 57.3%
Relative activity (optimal pH) ([2]; assay pH 7.0, pH 8.0 = 100): 74.8%
Relative activity (optimal pH) ([2]; assay pH 7.5, pH 8.0 = 100): 90.0%
Relative activity (optimal pH) ([2]; assay pH 8.0): 100.0%
Relative activity (optimal pH) ([2]; assay pH 8.5, pH 8.0 = 100): 85.6%
Relative activity (optimal pH) ([2]; assay pH 9.0, pH 8.0 = 100): 46.5%
Relative activity (optimal pH) ([2]; assay pH 9.5, pH 8.0 = 100): 23.9%
Relative activity (pH stability) ([3]; incubated at pH 4.0, 3 hours): 6.2%
Relative activity (pH stability) ([3]; incubated at pH 5.0, 3 hours): 77.9%
Relative activity (pH stability) ([3]; incubated at pH 6.0, 3 hours): 105.8%
Relative activity (pH stability) ([3]; incubated at pH 7.0, 3 hours): 100.9%
Relative activity (pH stability) ([3]; incubated at pH 8.0, 3 hours): 99.0%
Relative activity (pH stability) ([3]; incubated at pH 9.0, 3 hours): 100.9%
Relative activity (pH stability) ([3]; incubated at pH 10.0, 3 hours): 104.0%
Relative activity (pH stability) ([3]; incubated at pH 11.0, 3 hours): 79.2%
Relative activity (thermal stability) ([4]; 4° C. for 5 minutes (reference)): 100.0%
Relative activity (thermal stability) ([4]; 20° C. for 5 minutes, relative to 4° C. incubation): 96.0%
Relative activity (thermal stability) ([4]; 30° C. for 5 minutes, relative to 4° C. incubation): 86.1%
Relative activity (thermal stability) ([4]; 40° C. for 5 minutes, relative to 4° C. incubation): 72.8%
Relative activity (thermal stability) ([4]; 50° C. for 5 minutes, relative to 4° C. incubation): 26.6%
Relative activity (thermal stability) ([4]; 60° C. for 5 minutes, relative to 4° C. incubation): 13.3%
